Reference: the RNAGym collection of RNA variant scans (doi:10.1073/pnas.2313332121)
This sample holds only a part of the variants without activity.

B1: TPR 5TU (parent)
chain: GGAUCUUCUCGAUCUAACAAAAAAGACAAAUCUGCCACAAAGCUUGAGAGCAUCUUCGGAUGCAGAGGCGGCAGCCUUCGGUGGCGCGAUAGCGCCAACGUUCUCAACUAUGACACGCAAAACGCGUGCUCCGUUGAAUGGAGUUUAUCAUG

Variants of: B1
Test: polymerase ribozyme fitness, log enrichment relative to wild type (log ratio); higher = more active; in vitro selection for triplet polymerase activity
How it was run: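 Genotype fitness is the logarithm of its enrichment divided by wild-type enrichment, using inverse-variance-weighted averages of replicates. That logarithm is base 2. Enrichment was measured by Illumina sequencing of input and output libraries from one triplicate in vitro selection round, with frozen incubation at −7 °C, on PCR-built, transcribed mutant libraries of each subunit of a heterodimeric triplet polymerase ribozyme, retaining genotypes with ≥10 input reads and ≥1 read per output.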

Point of comparison: C57A C96U U146G, “polymerase ribozyme fitness (log ratio)” value -0.855. Against it:
- G58C C93A G141C — lower, -2.47
- G58U A97G G112C C149A — lower, ≤ -4.2
- U56G C85G A119G G141C — lower, -2.08
- G58C G88U C105A G141C U144G U146G — lower, ≤ -4.2
- G59A G92A G128A — lower, -4.02
- G58A G84A U104G — higher, -0.568
- G58A G62C U82G A106G G141C — lower, -4.01
- C57G A142C — higher, -0.312
- C57G A91U A147U — lower, ≤ -4.2
- C57U C87A — lower, -4.12
- C57U U111G — lower, -4.17
- G58A C76G C125U C132A G133C — lower, ≤ -4.2
- G59C G81U C95U G141A — lower, -3.32
- C57U G84A C93U — lower, -2.9
- G59A A73G C93U A106G U144G U146C — within 0.2 log units, -0.726
- C57G G59A — higher, -0.436
- C57G G59C — higher, -0.566
- G59C U102G — lower, -2.05
- U56G U144A — higher, -0.473
- G58C G67U A91U A107G C108U C116G C125U C129U — lower, ≤ -4.2
- C57A C69A C72U C85A — lower, -3.55
- C57G U148A — lower, -3.25
- C57G G83U A147U — higher, 0.219
- G59U C114U — lower, -1.62
- G59A C123U G136C C149G — lower, -4.17
- C57U A121U C129U — higher, -0.101
- G59C G141U — higher, -0.299
- C57G G59A G81C U104G A120U — lower, -1.84
- A60C G67U C76A C96U A107G C125U — lower, ≤ -4.2
- C57U C76U C129G — lower, -3.51
- U56G G83A C87G A120U U135C — lower, ≤ -4.2
- G58U U148A — lower, -3.05
- G58C C118U U135C U145A — lower, -1.79
- G58A A89U G94U — lower, -3.19
- C57U C99G C105U — within 0.2 log units, -1
- G59C A98U — higher, 0.166
- G58A C96G — higher, -0.616
- G59U C76G A91G A106C C114U C125U G128A G143U — lower, ≤ -4.2
- G58A G81A G86A C93U G112C C116U C149G — higher, 1.13
- G59C C69A — lower, -1.79
- U56G C118U C123U — higher, -0.604
- A60C G71U G92C C108G G117A G124U A137C — lower, -4.08
- C57A A60C C96U C132A — lower, -3.83
- G58A C87U A89U A106U — lower, -2.54
- G58C U134G A150U — lower, -3.62
- C57G G59U A60G C85G A89U A97U G128A U148A — lower, ≤ -4.2
- G58A G83A U109C A115U — lower, ≤ -4.2
- G58U A66C U77G A91U C96G A97U — lower, ≤ -4.2
- G58U G71A A91U G92A G126A G133U — lower, ≤ -4.2
- G59A G70C — lower, -2.8
- C57U U127A U151G — lower, ≤ -4.2
- C57G A60C G81C C103A U111G A119C — lower, ≤ -4.2
- G58U U61G — lower, -1.81
- C57U G68A — lower, -3.56
- C57U G59A A73G C79U — lower, ≤ -4.2
- A60C G68A C95A C96G U134G U139G — lower, ≤ -4.2
- C57A G92C C123A — higher, -0.277
- G58A G94A U135G U144C — lower, -1.98
- C57U A64G — lower, -3.91
- C57U G58A A60U C69U C76A G88U G141A — lower, ≤ -4.2
- C57A A97U G124A G140U — lower, -4.13
- G58U G141C A147U — higher, -0.128
- G58U U61A U135A — lower, -1.67
- C57U G71U — lower, -1.94
- C57U G58C C79U — lower, -1.86
- C57U U78A G84A C95U U135G — lower, ≤ -4.2
- G58U G80U U104G — lower, -2.41
- U56G G58A A73G C108U A150G — lower, ≤ -4.2
- G58A G81C G84A G133C U144G — within 0.2 log units, -0.672
- G59C U146C — higher, 0.716
- G59C U146G — higher, -0.145
- G58C C87A G136A U144G — lower, ≤ -4.2
- G59A U61A C79U G83A A121C — lower, ≤ -4.2
- G59A A150U — higher, 0.933
- G59C G124U — higher, -0.228
- G59U G84A U104C — higher, -0.647
- G59C C95A C131G G136U — lower, ≤ -4.2
- C57U C75G G81A C87G A120G — lower, ≤ -4.2
- C57U C85U — higher, 0.073
- C57U C85A — lower, -1.63
- C57A C93A A106U A122U — lower, -2.85
- G58U C69A C85U C132G G133C G141C — lower, ≤ -4.2
- G59A C85A — within 0.2 log units, -1.04
- G59A C85G — lower, -2.1
- G58C C75U C95U C99G U135C — lower, ≤ -4.2
- G59C C85A — within 0.2 log units, -0.943
- G59A A66C G84A A89U — lower, ≤ -4.2
- G58C U82A — higher, 0.644
- C57A C131G — lower, -3.13
- G58U G83U C118U A137U — lower, ≤ -4.2
- G58U G84A — within 0.2 log units, -0.866
- C57U U61G C76A — lower, ≤ -4.2
- C57U G141A — higher, 0.719
- G59C A115C — higher, -0.396
- C57G C129G — lower, -2.74
- G58A U146C — higher, 0.448
- G59A U144C — higher, 0.0653
- G59A A73U C75U C87A C95A G100U U127G A150C — lower, ≤ -4.2
- G58C G65C A66C U77G U102A C132U — lower, ≤ -4.2
- C57U G58C G86A U102A C116A — lower, -2.47
- G59A U82A C95G G136A — lower, -1.25
- C57A G83A — within 0.2 log units, -0.934
- G59A G70C C85U A91U — lower, ≤ -4.2
- C57U G58A G83A G86A C118U C123A — lower, -1.76
- C57U A73C — lower, -1.36
- C57U A73U — higher, -0.507
- G59C A89G U139C U144C — lower, -3.75
- U56G U61G G128U — lower, -3.73
- C57A U145C — higher, 0.674
- G59U A60U C85A — lower, -2.59
- G59U C76U G83U U102G C123A — lower, ≤ -4.2
- G58C A142U U146A — within 0.2 log units, -1.03
- G58C C93A — lower, -2.61
- C57U A142U — higher, 0.471
- G58A C69A U82G A120U U134C — lower, -1.34
- C57G C123G — within 0.2 log units, -0.87
- G59A G133U G140C — lower, -3.69
- G59A U134A — lower, -2.02
- C57G A73G U82A C96G U101C C116A — lower, -3.9
- U56G C129U — higher, -0.408
- G59A A106C A113C C118G — lower, ≤ -4.2
- U56G C96A — lower, -1.15
- G59C C79A C93U — lower, ≤ -4.2
- C57G U82A A91C A115G C125A C149A — lower, ≤ -4.2
- G58A G84C — lower, -1.94
- C57A C85U U146C — higher, -0.426
- C57U A60G G133C G152U — lower, -3.31
- C57U G59A C75G A138G — lower, -4.02
- G59U G94C C99A G128C C129U U130C G140U — lower, ≤ -4.2
- C57A C85U G143A — higher, -0.323
- C57G C95U U102G — lower, -2.74
- G59C A138C — lower, -3.7
- C57A A66G C87A — lower, ≤ -4.2
- C57A C129U C131U U134C — higher, 1.02
- C57U U151G — lower, -3.63
- C57U C87G A107C C108U U135A U151C — lower, ≤ -4.2
- G59U G65C U109G — lower, ≤ -4.2
- G59C C63A G126A — higher, -0.167
- C57U G92U — within 0.2 log units, -0.682
- C57U G94U U127C C132U — lower, -3.37
- G59U G88U G94U U102G A147G — lower, ≤ -4.2
- C57U U146G — within 0.2 log units, -0.656
- G58U C123U G124C — higher, -0.593
- G59A A60G U77G U127C — lower, ≤ -4.2
- G59A U101A — higher, 0.287
- C57A G70A U134C — lower, -3.65
- A60C G81U C87U — lower, -2.07
- A60C G84A A91G C116U — lower, -4.11
- C57A A107U — lower, -3.62
- C57U G84U — lower, -2.27
- G58A C63A — higher, 0.255
- C57A G59C — higher, 0.0811
- G59U G86A — lower, -1.19
- G58C G59C — higher, 0.523
- G59A A60G U134C — higher, -0.132
- G59U C95U G133U — lower, ≤ -4.2
- G58U G59C U78A C108G U148A — lower, ≤ -4.2
- G59C U90C C108G A119U A150U — lower, ≤ -4.2
- C57G U61A G88A U104G — lower, -4.19
- G59A A89G — lower, -1.1
- G59A U90A A98G C103A — lower, ≤ -4.2
- G59C C95U G136U — lower, -2.05
- G58U U135G — lower, -3.76
- G59C G84U G124C — lower, -2.97
- G59A C85A C95U C103U U134A — lower, -3.2
- G58C A60G G81U G88A C108G G117C A119U G143C — lower, ≤ -4.2
